US20240059769A1 (BIOLOJIC DESIGN, published 2024)

Columns and labels:
[1] = biological target: IL-2 (Homo sapiens (Human), UniProt P60568 21-153); assay: specificity ELISA, 250 ng ligand coated
[2] = biological target: T1, recombinant human IL-13 (human, UniProt P35225 35-146); assay: cell-based or functional assay
[3] = biological target: T2, human TSLP (human, UniProt Q969D9 29-159); assay: ELISA, ligand coated, IgG 1-1000 nM
T2 construct: also called hTSLP; rhTSLP

[4] = biological target: T3, cynomolgus monkey (cyno) TSLP (cynomolgus monkey, UniProt A0A7N9CAT7 29-159); assay: ELISA, ligand coated, IgG 1-1000 nM
T3 construct: also called cTSLP; cynomolgus TSLP

[5] = biological target: T4, recombinant cynomolgus monkey IL-13 (cynomolgus monkey, UniProt Q0PW92 21-132); assay: ELISA, ligand coated, IgG 1-1000 nM
T4 construct: bought; also called rc-IL-13; cIL-13

[6] = biological target: BSA (UniProt P02769 25-607); assay: ELISA, 250 ng coated ligand per well, 100 nM IgG, anti-human Fc-HRP
[7] = biological target: T1, recombinant human IL-13; assay: SPR (Biacore T200), antibody captured, hIL-13 analyte 20-0.6 nM
Procedure: Recombinant cyno IL-13 (rc-IL-13) was tested at 200 nM with a 2-fold dilution (FIGS. 5C-5D).

[8] = biological target: T5, hTSLP-His (human, UniProt Q969D9 29-159, limits assumed); assay: competition ELISA, TSLP-R coated, soluble TSLP-R as competitor for hTSLP
T5 construct: bought; also called hTSLP (ACROBiosystems TSP-H52Hb); not shown: His tag

T1 sequence (P35225 35-146 limits assumed): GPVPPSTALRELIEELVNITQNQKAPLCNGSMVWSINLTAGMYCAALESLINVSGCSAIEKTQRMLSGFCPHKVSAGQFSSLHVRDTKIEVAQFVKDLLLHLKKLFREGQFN
Sequence of IL-2 (P60568 21-153 limits assumed): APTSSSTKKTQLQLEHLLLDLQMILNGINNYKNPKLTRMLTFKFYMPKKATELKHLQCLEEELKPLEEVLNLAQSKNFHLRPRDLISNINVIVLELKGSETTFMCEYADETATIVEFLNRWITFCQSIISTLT
T3 sequence (A0A7N9CAT7 entry or part of it): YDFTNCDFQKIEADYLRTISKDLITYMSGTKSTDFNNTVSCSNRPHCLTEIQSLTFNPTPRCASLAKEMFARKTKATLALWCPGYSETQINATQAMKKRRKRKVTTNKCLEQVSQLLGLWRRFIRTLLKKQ
T4 sequence (Q0PW92 entry or part of it): as the sequence (P35225 35-146 limits assumed) above, with G1S, R10K, M42V, S67N, H83R, L100V counted along it
Sequence of BSA (P02769 25-607 limits assumed): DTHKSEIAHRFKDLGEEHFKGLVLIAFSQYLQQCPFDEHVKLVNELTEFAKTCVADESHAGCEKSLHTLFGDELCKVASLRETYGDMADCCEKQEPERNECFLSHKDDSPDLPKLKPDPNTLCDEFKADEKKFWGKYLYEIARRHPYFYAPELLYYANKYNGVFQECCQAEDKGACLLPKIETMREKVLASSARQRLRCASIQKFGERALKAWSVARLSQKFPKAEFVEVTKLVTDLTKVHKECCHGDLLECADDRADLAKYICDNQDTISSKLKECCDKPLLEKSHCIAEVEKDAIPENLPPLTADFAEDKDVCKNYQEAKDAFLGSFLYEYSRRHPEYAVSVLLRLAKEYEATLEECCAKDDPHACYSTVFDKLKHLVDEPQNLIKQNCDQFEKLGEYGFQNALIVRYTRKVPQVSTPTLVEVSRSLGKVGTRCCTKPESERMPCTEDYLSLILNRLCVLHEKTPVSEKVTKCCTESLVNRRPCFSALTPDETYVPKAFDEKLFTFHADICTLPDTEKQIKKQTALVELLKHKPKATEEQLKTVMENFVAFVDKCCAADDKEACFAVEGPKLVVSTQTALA

Binder | binding result [1] | IC50, HEK-Blue IL-4/IL-13 reporter (0.4 nM rh-IL-13) [2] [nM] | EC50 [3] [nM] | EC50 [4] [nM] | EC50 [5] [nM] | binding result [6] | Kd [7] [nM] | koff [7] [s⁻¹] | kon [7] [M⁻¹ s⁻¹] | IC50 [8] [nM]
BDG33.025 (antibody, V domains shown, standard IgG; also called BGD33.025; BDG33.0025) VH: QMQLVESGGGVVQPGRSLRLSCAASGFTFRTYGMHWVRQAPGKGLEWVADIWYDGSNKHYADSVKGRFTITRDNSKNTLNLQMNSLRAEDTAVYYCARAPQWYLVAEPFDLWGQGTMVTVSS VL: SYVLTQPPSVSVAPGQTARITCGGNLIGSKLVHWYQQKPGQAPVLVVYDDSDRPSLIPERFSGSNSGNTATLTISRVEAGDEADYYCQVWDSSSDGVVFGGGTKLTVL | no binding (tested: 100 nM IgG) | 25 | 12.8 | 148 | 1.5 | no binding (tested: 100 nM) | 0.903 | 0.0036 | 4.07e+06 | –
TSLP-R-Fc tag (Fc fusion, UniProt Q9HC73 23-231, looked up, bought; also called TSLP receptor; not shown: Fc tag) QGGAAEGVQIQIIYFNLETVQVTWNASKYSRTNLTFHYRFNGDEAYDQCTNYLLQEGHTSGCLLDAEQRDDILYFSIRNGTHPVFTASRWMVYYLKPSSPKHVRFSWHQDAVTVTCSDLSYGDLLYEVQYRSPFDTEWQSKQENTCNVTIEGLDAEKCYSFWVRVKAMEDVYGPDTYPSDWSEVTCWQRGEIRDACAETPTPPKPKLSK | – | – | – | – | – | – | – | – | – | 3
